Data on six molecules can be found in patent US20160244511A1 (published 2016).

As usually defined, the Kd is the free concentration of one partner at which half of the binding sites on the other are occupied at equilibrium, for simple one-to-one binding. A higher Kd goes with lower affinity.

Positions count from the first letter of the chain named. Bounds are passed on as bounds.

Experiment [1] deals with T1, LukF, F-component of Panton Valentine leukocidin (LukSF), USA300 TCH1516 strain (Staphylococcus aureus USA300 TCH1516).
T1 chain: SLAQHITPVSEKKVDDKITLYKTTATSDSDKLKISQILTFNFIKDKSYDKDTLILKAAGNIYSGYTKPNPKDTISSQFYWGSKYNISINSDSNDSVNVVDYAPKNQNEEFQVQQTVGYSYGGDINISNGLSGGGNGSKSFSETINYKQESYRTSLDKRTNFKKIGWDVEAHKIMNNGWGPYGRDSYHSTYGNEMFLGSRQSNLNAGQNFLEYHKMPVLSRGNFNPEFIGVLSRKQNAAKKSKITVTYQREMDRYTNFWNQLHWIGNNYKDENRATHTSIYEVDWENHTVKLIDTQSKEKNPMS
Description: MSD solution equilibrium, Fab with biotinylated antigen (or ForteBio).

The target of experiment [2] is T2, LukD, F-component of LukED, USA300 TCH1516 strain (Staphylococcus aureus USA300 TCH1516, UniProt Q2FXB1 27-327).
T2 sequence: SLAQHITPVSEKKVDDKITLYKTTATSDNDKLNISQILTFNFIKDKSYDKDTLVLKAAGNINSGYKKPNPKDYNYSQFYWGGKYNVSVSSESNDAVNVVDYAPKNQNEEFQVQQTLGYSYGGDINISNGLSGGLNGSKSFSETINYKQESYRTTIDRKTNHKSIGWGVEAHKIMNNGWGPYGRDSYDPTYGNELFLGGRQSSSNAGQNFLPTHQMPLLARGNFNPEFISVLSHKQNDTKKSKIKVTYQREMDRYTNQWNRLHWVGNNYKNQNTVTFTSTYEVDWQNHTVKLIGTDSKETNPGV
The experiment is described as above.

Experiment [3] concerns the target T3, HlgB, F-component of gamma-hemolysin, USA300 TCH1516 strain (Staphylococcus aureus USA300 TCH1516, UniProt P0A075 26-325).
T3 sequence: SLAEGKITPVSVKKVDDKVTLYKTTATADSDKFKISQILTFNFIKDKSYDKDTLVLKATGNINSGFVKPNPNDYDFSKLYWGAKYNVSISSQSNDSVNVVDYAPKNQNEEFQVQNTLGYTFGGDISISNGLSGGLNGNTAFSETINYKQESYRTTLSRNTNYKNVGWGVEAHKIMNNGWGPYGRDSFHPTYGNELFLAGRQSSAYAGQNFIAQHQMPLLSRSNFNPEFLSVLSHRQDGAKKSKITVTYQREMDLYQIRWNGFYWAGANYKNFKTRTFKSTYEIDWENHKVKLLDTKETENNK
The description is as above.

Experiment [4] deals with T1, LukF, F-component of Panton Valentine …. Put plainly: MSD solution equilibrium, Fab with biotinylated antigen.
The target in experiment [5] is T2, LukD, F-component of LukED, USA300 …. The description is as above.
Experiment [6] concerns the target T3, HlgB, F-component of gamma-hemolysin, …. Described as above.

B1: AB-28 Fab fragment (Fab, V domains shown)
VH: QVQLQESGPGLVKPSETLSLTCAVSGYSISSGMGWGWIRQPPGKGLEWIGSIDQRGSTYYNPSLKSRVTISVDTSKNQFSLKLSSVTAADTAVYYCARDAGHGVDMDVWGKGTTVTVSS
VL: DIQMTQSPSSVSASVGDRVTITCRASQGISRWLAWYQQKPGKAPKLLIYAASSLQSGVPSRFSGSGSGTDFTLTISSLQPEDFATYYCQQGYVFPLTFGGGTKVEIK
Take B1: the equilibrium dissociation constant (Kd) in experiment [1] is over 100 pM; in experiment [2], over 1000 pM; in experiment [3] it was under 10 pM.

B2: AB-28-8 Fab (Fab, V domains shown)
VH: B1 VH with G36D, S63P, K65E
VL: B1 VL
Turning to B2, the Kd in experiment [4] is under 55 pM; in experiment [5], under 800 pM.

B3: AB-28-6 Fab (Fab, V domains shown)
VH: B1 VH with K13R, G103A
VL: B1 VL
B3: the Kd was under 55 pM in experiment [4] and under 800 pM in experiment [5].

B4: AB-28-7 Fab (Fab, V domains shown)
VH: B1 VH with G36D, L46R, K65E, S66G, V68A
VL: B1 VL
Take B4: the results for the Kd in experiment [4] and in experiment [5] were under 55 pM and under 800 pM, respectively.

B5: AB-28-3 Fab (Fab, V domains shown)
VH: B1 VH with I52V, V104A
VL: B1 VL
On to B5, for which the Kd in experiment [6] was under 20 pM.

B6: AB-28-9 Fab (Fab, V domains shown)
VH: B1 VH with Q1E, K13R, G103A
VL: B1 VL
In the case of B6, the Kd is under 55 pM in experiment [4] and under 800 pM in experiment [5].
